Values quoted from earlier work in patent US9241970B2, “Therapy for subarachnoid hemorrhage and ischemia” (NoNO Inc., priority 2011, dated 2016).

Molecular target: binding of NMDAR2B to PSD-95 (Homo sapiens, UniProt P78352)
Conditions: reported by Bach

Sequence of binding of NMDAR2B to PSD-95 (P78352 whole entry): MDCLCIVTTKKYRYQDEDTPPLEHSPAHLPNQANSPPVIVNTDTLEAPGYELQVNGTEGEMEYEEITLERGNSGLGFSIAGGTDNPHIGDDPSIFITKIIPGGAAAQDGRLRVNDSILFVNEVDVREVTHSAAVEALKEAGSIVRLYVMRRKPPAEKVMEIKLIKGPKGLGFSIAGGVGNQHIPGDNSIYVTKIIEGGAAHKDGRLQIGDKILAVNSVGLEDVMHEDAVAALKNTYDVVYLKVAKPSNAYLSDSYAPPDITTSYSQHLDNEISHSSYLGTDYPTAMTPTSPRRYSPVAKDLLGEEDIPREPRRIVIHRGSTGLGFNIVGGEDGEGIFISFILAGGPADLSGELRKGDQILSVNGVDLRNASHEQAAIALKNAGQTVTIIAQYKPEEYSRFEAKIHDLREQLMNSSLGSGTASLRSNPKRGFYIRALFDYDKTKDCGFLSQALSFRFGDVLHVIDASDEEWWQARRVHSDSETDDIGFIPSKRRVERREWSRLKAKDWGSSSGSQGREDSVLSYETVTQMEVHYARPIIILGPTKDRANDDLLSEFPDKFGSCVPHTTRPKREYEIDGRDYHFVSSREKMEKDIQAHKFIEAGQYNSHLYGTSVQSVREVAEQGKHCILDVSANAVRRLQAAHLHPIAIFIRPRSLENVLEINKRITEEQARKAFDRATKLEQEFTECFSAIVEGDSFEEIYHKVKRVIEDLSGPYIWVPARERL

Substance: IESDV (listed as Homo sapiens)
- inhibition of binding of NMDAR2B to PSD-95: effective in inhibiting binding of NMDAR2B to PSD-95
